Measurements from patent US7947876B2 (Nippon Paper Industries Co., Ltd., priority 2004, dated 2011).
Ends that are not written are not given here.

Tested on: mouse islet
Assay: Thermal stability, activity measured by cAMP generation using mouse islet
Assay type: cell-based
Conditions: 15 min at 100° C.; for stability for thermal treatment (activity by cAMP generation): 10 μg/ml in 0.2% BSA solution, versus non-thermal treated control
Method: Further, trypsin treatment was performed, and a monomer GLP-1 derivative was obtained. […] To these thermal treated substances, non-thermal treated substances were prepared similarly as a control. Then, with respect to these substances, the activity was measured by cAMP generation using mouse islet. […] On the other hand, as the synthetic peptide was heat-stable, the 5 linked peptide expressed in rice was estimated to have changed by thermal denaturation to a tertiary structure which would not be easily digested by trypsin.

Question: For “[Ser^8,Gln^26, Asn^34]-GLP-1 (HDEFERHSEGTFTSDVSSYLEGQAAQEFIAWLVNGRG; Glucagon-like peptide 1; UniProt P01275 92-128, looked up, variant A8S K26Q K34N)”, which “activity lower than that of non-thermally treated (cAMP generation)” value (rice in distilled water, then extraction and trypsin treatment, FIG. 8) is on record?
Answer: The value was “about 33%”.

Question: How did the “stability for thermal treatment (activity by cAMP generation)” value turn out when “[Ser^8,Gln^26, Asn^34]-GLP-1 (HSEGTFTSDVSSYLEGQAAQEFIAWLVNGR; ends and bridges not checked) [synthetic GLP-1 derivative]” was run?
Answer: The value was “stable”.

Question: “synthetic native GLP-1: native GLP-1 obtained by synthesis [reference compound]” was tested. Which “stability for thermal treatment (activity by cAMP generation)” value did it give?
Answer: Its value is “stable”.
